Experiments:
[1] = molecular target: N36 peptide of HIV-1 gp41 (HIV-1); assay: circular dichroism at 222 nm, thermal melt, 10 µM of each peptide, PBS pH 7.0
[2] = molecular target: N36 peptide of HIV-1 gp41 (HIV-1); assay: circular dichroism at 222 nm, thermal melt
[3] = molecular target: T1, HIV-1 HXB2 envelope glycoprotein (gp41 subunit, N-helix coiled-coil) (HIV-1 (HXB2), UniProt P04578 512-856); assay: cell-based or functional assay
[4] = molecular target: T1, HIV-1 HXB2 envelope glycoprotein (gp41 …); assay: cell-based or functional assay; remark: listed apart in the source

C34 Arg^633→Ala (peptide)
Tm (apparent melting temperature of the N36/C34 complex) [1]: 65 °C

C34 Trp^628→Ala (peptide)
Tm (apparent melting temperature of the N36/C34 complex) [1]: 53 °C

C34 Trp^631→Leu (peptide)
Tm (apparent melting temperature of the N36/C34 complex) [2]: 50 °C

C34 Trp^631→Nal (peptide)
Tm (apparent melting temperature of the N36/C34 complex) [2]: 62 °C

C34 Trp^631→Gly (peptide)
Tm (apparent melting temperature of the N36/C34 complex) [2]: 35 °C

C34 Trp^631→Ala (peptide)
Tm (apparent melting temperature of the N36/C34 complex) [1]: 37 °C

C34 Trp^631→Abu (peptide)
Tm (apparent melting temperature of the N36/C34 complex) [2]: 43 °C

C34 Trp^631→Phe (peptide)
Tm (apparent melting temperature of the N36/C34 complex) [2]: 59 °C

C34 Trp^631→Val (peptide)
Tm (apparent melting temperature of the N36/C34 complex) [2]: 43 °C

C34 Ile^635→Ala (peptide)
Tm (apparent melting temperature of the N36/C34 complex) [1]: 55 °C

C34 peptide of HIV-1 gp41, wildtype
Tm (apparent melting temperature of the N36/C34 complex) [1]: 66 °C

C34 Met^629→Ala (peptide)
Tm (apparent melting temperature of the N36/C34 complex) [1]: 66 °C

B1: C34 Trp^631→Phe (peptide)
peptide: Ac-WMEFDREINNYTSLIHSLIEESQNQQEKNEQELL-NH2
IC50 (nanomolar) cell fusion [3]: 1.6 nM
IC50 (nanomolar) virus entry [3]: 3.6 nM

B2: C34 Trp^631→Ala (peptide)
peptide: Ac-WMEADREINNYTSLIHSLIEESQNQQEKNEQELL-NH2
decrease in inhibitory activity against wildtype C34 [3]: ~30 fold

B3: C34 Ile^635→Ala (peptide)
peptide: Ac-WMEWDREANNYTSLIHSLIEESQNQQEKNEQELL-NH2
decrease in inhibitory activity against wildtype C34 [3]: ~2 fold
IC50 (nM) cell fusion [4]: 0.96 nM
IC50 (nM) viral entry [4]: 4.1 nM

B4: C34 Arg^633→Ala (peptide)
peptide: Ac-WMEWDAEINNYTSLIHSLIEESQNQQEKNEQELL-NH2
IC50 (nM) cell fusion [4]: 0.76 nM
IC50 (nM) viral entry [4]: 2.6 nM

B5: C34 Trp^631→Gly (peptide)
peptide: Ac-WMEGDREINNYTSLIHSLIEESQNQQEKNEQELL-NH2
IC50 (nanomolar) cell fusion [3]: 25 nM
IC50 (nanomolar) virus entry [3]: 38 nM

B6: C34 Trp^631→Leu (peptide)
peptide: Ac-WMELDREINNYTSLIHSLIEESQNQQEKNEQELL-NH2
IC50 (nanomolar) cell fusion [3]: 3.2 nM
IC50 (nanomolar) virus entry [3]: 5.3 nM

B7: C34 Trp^631→Val (peptide)
peptide: Ac-WMEVDREINNYTSLIHSLIEESQNQQEKNEQELL-NH2
IC50 (nanomolar) cell fusion [3]: 4.5 nM
IC50 (nanomolar) virus entry [3]: 13 nM
